1 molecule from publication PMC4191604 (Journal of Medicinal Chemistry, 2014) can be followed below.

Common to all, as to assay: SPR
(In SPR one partner is held on a chip, and binding of the other changes the refractive index at the surface.)

One test has as its target T1, GBP1 mutant D184A (human, UniProt P32455 1-592, D184A).
T1 sequence (looked up): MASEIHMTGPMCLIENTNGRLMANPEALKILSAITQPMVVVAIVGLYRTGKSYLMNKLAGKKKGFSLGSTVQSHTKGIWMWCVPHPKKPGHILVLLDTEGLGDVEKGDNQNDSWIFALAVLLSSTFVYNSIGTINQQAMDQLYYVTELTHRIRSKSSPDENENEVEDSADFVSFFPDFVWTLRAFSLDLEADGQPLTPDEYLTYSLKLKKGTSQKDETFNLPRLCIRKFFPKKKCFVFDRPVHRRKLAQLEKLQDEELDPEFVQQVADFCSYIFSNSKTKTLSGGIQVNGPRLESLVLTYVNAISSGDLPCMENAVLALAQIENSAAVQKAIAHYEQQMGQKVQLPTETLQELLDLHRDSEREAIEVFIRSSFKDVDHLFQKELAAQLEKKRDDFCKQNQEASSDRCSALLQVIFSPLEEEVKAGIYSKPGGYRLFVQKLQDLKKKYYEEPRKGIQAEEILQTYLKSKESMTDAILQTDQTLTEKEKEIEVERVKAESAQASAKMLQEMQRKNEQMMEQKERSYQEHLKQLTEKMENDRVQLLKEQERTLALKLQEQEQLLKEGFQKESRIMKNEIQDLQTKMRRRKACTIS

A further test has as its target T2, GBP1 mutant R227E/K228E (human, UniProt P32455 1-592, R227E | K228E).
T2 sequence (looked up): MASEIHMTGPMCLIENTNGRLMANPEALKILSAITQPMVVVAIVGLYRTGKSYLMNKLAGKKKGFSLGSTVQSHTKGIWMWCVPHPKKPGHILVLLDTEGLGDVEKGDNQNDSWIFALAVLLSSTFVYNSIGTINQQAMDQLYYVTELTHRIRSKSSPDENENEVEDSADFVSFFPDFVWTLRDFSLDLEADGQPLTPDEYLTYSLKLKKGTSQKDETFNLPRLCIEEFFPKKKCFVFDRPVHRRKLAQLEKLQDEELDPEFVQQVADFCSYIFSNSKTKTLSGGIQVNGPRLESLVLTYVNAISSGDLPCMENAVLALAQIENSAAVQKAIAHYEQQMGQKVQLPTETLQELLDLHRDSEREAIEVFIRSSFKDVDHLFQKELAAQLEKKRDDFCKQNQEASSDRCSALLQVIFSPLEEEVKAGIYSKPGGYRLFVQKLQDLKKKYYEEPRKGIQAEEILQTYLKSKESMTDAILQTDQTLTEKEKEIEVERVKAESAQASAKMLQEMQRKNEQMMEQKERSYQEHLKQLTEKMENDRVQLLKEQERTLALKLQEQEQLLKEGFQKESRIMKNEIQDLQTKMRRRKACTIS

The target of the next test is T3, GBP1 mutant K51A (human, UniProt P32455 1-592, K51A).
T3 sequence (looked up): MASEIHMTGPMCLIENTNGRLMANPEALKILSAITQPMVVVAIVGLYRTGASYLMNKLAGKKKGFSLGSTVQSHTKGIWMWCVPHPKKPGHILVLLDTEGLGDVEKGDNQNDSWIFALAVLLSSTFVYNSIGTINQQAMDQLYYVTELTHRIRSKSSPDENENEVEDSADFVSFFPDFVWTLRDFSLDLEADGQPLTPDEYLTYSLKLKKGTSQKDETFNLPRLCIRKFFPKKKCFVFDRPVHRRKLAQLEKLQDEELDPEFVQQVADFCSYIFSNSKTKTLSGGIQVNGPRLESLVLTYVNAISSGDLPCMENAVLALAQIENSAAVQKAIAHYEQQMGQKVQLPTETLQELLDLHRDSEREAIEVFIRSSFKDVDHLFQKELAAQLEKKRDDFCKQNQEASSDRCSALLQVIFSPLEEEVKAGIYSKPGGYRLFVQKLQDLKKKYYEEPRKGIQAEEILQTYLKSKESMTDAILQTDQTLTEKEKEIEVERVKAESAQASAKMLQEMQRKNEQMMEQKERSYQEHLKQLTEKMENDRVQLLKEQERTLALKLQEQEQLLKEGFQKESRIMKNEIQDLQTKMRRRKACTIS

Test [1] concerns the target T4, GBP1 GTPase (human GBP1, recombinant wild type) (human, UniProt P32455 1-592).
T4 sequence (looked up): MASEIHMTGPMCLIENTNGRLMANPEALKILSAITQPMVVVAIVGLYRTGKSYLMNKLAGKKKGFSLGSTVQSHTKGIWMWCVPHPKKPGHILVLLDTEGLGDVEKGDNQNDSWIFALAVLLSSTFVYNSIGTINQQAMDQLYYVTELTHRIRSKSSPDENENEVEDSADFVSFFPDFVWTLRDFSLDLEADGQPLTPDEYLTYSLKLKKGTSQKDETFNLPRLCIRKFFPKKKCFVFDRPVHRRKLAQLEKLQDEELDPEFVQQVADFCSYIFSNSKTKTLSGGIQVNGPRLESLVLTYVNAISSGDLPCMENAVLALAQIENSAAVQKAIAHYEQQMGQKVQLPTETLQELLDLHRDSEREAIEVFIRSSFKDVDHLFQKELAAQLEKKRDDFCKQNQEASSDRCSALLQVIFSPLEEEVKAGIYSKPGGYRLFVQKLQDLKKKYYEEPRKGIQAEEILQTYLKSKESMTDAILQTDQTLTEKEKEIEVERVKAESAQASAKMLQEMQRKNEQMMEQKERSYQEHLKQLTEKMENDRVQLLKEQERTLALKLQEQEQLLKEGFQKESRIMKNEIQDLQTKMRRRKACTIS

B1: PIM1 (recombinant) (enzyme)
chain: not shown
Consider B1, for which the Kd – broadly, the free concentration of one partner at which half of the binding sites on the other are occupied at equilibrium, for simple one-to-one binding – with GBP1 mutant D184A is 80 ± 5 nM; in the test with GBP1 mutant R227E/K228E, over 10000 nM; with GBP1 mutant K51A it was 50 ± 10 nM; in test [1], 38 ± 14 nM.
